Earlier results in publication PMC9836287.

Biological target: CEP250 (Homo sapiens) (UniProt Q9BV73)
UniProt Q9BV73, sequence (Q9BV73 whole entry): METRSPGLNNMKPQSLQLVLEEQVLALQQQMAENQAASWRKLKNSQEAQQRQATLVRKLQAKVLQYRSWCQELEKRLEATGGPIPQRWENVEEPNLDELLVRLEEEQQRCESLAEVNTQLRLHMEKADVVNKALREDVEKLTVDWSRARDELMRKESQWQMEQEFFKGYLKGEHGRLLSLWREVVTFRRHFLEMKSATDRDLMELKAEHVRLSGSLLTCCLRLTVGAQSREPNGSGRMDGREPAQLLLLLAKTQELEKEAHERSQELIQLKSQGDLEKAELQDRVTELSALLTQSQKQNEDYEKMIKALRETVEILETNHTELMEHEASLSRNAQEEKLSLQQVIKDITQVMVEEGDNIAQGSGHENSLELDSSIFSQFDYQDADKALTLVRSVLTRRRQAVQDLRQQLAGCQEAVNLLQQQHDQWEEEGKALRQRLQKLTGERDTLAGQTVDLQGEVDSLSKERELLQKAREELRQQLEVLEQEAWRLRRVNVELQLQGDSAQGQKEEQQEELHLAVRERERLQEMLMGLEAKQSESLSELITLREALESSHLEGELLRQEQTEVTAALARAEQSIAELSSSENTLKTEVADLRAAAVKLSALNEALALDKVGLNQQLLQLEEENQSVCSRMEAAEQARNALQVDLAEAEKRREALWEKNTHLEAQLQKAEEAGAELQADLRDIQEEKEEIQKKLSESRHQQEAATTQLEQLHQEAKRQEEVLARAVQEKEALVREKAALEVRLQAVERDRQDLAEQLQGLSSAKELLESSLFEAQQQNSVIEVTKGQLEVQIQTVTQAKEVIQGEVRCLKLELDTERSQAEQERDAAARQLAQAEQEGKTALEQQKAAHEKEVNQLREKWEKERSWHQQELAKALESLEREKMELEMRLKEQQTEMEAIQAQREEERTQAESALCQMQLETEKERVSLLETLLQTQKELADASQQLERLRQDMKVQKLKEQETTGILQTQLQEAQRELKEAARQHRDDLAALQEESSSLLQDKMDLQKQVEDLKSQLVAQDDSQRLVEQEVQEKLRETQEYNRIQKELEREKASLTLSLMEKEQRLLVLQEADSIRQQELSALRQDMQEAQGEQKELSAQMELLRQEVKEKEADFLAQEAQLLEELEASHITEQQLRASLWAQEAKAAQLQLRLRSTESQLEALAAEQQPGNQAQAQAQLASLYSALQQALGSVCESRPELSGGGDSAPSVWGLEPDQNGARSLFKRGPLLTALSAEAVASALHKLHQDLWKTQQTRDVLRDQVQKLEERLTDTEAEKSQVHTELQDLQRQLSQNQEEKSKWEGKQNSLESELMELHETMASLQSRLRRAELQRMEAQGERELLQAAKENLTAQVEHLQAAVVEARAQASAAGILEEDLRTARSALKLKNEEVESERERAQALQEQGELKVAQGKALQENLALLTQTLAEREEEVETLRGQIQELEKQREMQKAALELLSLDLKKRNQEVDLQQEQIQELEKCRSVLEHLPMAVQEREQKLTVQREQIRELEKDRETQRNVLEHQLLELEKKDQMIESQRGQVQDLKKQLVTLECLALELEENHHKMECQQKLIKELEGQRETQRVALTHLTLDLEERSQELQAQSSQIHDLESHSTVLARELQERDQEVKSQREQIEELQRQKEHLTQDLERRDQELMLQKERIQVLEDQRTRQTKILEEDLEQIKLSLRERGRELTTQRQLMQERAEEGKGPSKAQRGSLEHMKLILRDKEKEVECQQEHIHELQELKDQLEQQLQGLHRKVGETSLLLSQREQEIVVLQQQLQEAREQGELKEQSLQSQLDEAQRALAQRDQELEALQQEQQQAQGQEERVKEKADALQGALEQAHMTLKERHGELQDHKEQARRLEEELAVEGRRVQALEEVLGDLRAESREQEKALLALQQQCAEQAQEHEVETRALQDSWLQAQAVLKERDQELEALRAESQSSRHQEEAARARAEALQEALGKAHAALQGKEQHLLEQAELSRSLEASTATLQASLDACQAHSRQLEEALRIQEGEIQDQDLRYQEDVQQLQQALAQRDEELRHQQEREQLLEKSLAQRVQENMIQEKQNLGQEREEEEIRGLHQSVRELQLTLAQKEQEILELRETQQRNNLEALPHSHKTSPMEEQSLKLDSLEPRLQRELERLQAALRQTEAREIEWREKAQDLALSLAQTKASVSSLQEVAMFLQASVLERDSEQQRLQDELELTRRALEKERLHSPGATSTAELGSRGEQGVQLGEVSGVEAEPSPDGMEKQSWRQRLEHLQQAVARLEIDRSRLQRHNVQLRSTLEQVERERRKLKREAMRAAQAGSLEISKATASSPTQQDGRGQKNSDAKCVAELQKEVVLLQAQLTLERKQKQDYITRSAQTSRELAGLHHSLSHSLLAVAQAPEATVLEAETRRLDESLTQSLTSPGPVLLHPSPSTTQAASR

Q: With FKBP12 (from UniProt P62942) as the substance, how does the Kd read?
A: 40 nM
